Measured values from article doi:10.1101/2020.02.01.930206 (bioRxiv, 2020).

T1: human MMS19 (subunit of the purified CTC) (human, UniProt Q96T76 1-1030)
T1 sequence: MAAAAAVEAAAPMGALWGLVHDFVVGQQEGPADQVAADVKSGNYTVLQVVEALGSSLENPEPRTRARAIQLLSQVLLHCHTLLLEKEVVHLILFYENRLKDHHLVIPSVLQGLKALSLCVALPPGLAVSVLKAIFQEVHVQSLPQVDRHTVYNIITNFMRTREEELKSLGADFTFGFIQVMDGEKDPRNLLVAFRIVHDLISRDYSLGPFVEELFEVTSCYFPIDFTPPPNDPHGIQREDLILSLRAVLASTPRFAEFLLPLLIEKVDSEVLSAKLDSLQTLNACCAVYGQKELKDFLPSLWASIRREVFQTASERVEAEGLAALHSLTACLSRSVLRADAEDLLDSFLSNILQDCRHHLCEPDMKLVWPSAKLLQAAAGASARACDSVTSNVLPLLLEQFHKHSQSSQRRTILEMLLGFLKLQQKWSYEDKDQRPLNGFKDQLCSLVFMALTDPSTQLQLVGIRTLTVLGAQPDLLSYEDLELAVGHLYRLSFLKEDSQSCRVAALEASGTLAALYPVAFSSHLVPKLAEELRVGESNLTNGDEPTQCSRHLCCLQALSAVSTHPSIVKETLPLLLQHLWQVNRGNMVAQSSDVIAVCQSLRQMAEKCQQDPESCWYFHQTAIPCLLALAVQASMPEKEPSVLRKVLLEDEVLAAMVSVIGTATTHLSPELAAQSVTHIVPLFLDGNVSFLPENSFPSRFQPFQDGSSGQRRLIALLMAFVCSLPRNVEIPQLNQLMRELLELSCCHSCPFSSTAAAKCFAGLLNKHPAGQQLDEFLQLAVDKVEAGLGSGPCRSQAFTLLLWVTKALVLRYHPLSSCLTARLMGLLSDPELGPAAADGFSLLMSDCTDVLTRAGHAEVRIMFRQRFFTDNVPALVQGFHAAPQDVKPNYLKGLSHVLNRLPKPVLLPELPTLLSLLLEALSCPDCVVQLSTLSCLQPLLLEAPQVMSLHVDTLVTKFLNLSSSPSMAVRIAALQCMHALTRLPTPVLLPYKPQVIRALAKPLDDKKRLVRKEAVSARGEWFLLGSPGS

T2: human primase small subunit PriS (human, UniProt P49642 1-420)
T2 sequence: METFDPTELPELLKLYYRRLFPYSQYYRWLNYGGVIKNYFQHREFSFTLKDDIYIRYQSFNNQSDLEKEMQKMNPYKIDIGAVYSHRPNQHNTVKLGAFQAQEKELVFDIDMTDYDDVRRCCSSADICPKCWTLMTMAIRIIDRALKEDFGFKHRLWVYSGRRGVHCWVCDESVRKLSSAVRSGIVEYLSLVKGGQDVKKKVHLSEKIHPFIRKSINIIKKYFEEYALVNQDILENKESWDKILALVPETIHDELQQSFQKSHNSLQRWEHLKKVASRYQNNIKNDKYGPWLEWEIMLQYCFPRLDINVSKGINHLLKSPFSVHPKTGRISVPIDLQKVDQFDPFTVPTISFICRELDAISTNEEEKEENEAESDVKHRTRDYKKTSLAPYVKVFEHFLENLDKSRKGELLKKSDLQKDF

B1: human primase (PriL-PriS heterodimer) (complex)
chain 1: MEFSGRKWRKLRLAGDQRNASYPHCLQFYLQPPSENISLIEFENLAIDRVKLLKSVENLGVSYVKGTEQYQSKLESELRKLKFSYRENLEDEYEPRRRDHISHFILRLAYCQSEELRRWFIQQEMDLLRFRFSILPKDKIQDFLKDSQLQFEAISDEEKTLREQEIVASSPSLSGLKLGFESIYKIPFADALDLFRGRKVYLEDGFAYVPLKDIVAIILNEFRAKLSKALALTARSLPAVQSDERLQPLLNHLSHSYTGQDYSTQGNVGKISLDQIDLLSTKSFPPCMRQLHKALRENHHLRHGGRMQYGLFLKGIGLTLEQALQFWKQEFIKGKMDPDKFDKGYSYNIRHSFGKEGKRTDYTPFSCLKIILSNPPSQGDYHGCPFRHSDPELLKQKLQSYKISPGGISQILDLVKGTHYQVACQKYFEMIHNVDDCGFSLNHPNQFFCESQRILNGGKDIKKEPIQPETPQPKPSVQKTKDASSALASLNSSLEMDMEGLEDYFSEDS
chain 2: T2 sequence
B2: human primase large subunit PriL (natural protein)
chain: B1 chain 1
B3: human CIAO1 (subunit of the purified CTC) (natural protein)
chain: not shown
B4: full-length mouse DNA2 (enzyme)
chain: MEPLDELDLLLLEEDGGAEAVPRVELLRKKADALFPETVLSRGVDNRYLVLAVETSQNERGAEEKRLHVTASQDREHEVLCILRNGWSSVPVEPGDIVHLEGDCTSEPWIIDDDFGYFILYPDMMISGTSVASSIRCLRRAVLSETFRGSDPATRQMLIGTILHEVFQKAISESFAPERLQELALQTLREVRHLKEMYRLNLSQDEILCEVEEYLPSFSKWAEDFMRKGPSSEFPQMQLSLPSDGSNRSSPCNIEVVKSLDIEESIWSPRFGLKGKIDVTVGVKIHRDCKMKYKVMPLELKTGKESNSIEHRSQVVLYTLLSQERREDPEAGWLLYLKTGQMYPVPANHLDKRELLKLRNWLAASLLHRVSRAAPGEEARLSALPQIIEEEKTCKYCSQIGNCALYSRAVEEQGDDASIPEAMLSKIQEETRHLQLAHLKYFSLWCLMLTLESQSKDNRKTHQSIWLTPASELEESGNCVGNLVRTEPVSRVCDGQYLHNFQRKNGPMPATNLMAGDRIILSGEERKLFALSKGYVKKMNKAAVTCLLDRNLSTLPATTVFRLDREERHGDISTPLGNLSKLMESTDPSKRLRELIIDFREPQFIAYLSSVLPHDAKDTVANILKGLNKPQRQAMKRVLLSKDYTLIVGMPGTGKTTTICALVRILSACGFSVLLTSYTHSAVDNILLKLAKFKVGFLRLGQSHKVHPDIQKFTEEEICRSRSIASLAHLEELYNSHPIVATTCMGINHPIFSRKTFDFCIVDEASQISQPVCLGPLFFSRRFVLVGDHQQLPPLVVNREARALGMSESLFKRLERNESAVVQLTVQYRMNRKIMSLSNKLTYAGKLECGSDRVANAVLALPNLKDARLSLQLYADYSDSPWLAGVLEPDNPVCFLNTDKVPAPEQVENGGVSNVTEARLIVFLTSTFIKAGCSPSDIGVIAPYRQQLRIISDLLARSSVGMVEVNTVDKYQGRDKSLILVSFVRSNEDGTLGELLKDWRRLNVALTRAKHKLILLGSVSSLKRFPPLGTLFDHLNAEQLILDLPSREHESLSHILGDCQRD

Tests used:
[1] = biological target: T3, full-length human CIA targeting complex (MMS19-CIAO1-CIAO2B) (human, UniProt Q96T76;O76071;Q9Y3D0); test: ITC
Target sequence in this assay (O76071 whole entry, one chain of several): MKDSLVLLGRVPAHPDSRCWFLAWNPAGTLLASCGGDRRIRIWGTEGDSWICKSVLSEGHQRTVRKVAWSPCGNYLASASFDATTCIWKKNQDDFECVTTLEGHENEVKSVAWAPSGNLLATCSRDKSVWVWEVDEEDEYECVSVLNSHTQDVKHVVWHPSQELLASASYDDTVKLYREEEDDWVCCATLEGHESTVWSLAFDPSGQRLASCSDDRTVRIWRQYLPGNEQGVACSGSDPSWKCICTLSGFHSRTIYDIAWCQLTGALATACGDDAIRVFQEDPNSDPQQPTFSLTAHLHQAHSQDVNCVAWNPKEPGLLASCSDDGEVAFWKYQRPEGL

[2] = biological target: human MMS19^381-1030-CIAO1-CIAO2B complex (human, UniProt Q96T76;O76071;Q9Y3D0); test: ITC
Sequence of human MMS19^381-1030-CIAO1-CIAO2B complex (O76071 whole entry, one chain of several): as above

[3] = biological target: T1, human MMS19 (subunit of the purified …); test: cryo-EM structure
[4] = biological target: T2, human primase small subunit PriS; test: cryo-EM structure
full-length mouse DNA2 = biological target: B4; test: cryo-EM structure
[5] = biological target: T3, full-length human CIA targeting complex …; test: cryo-EM structure
Target sequence in this assay (O76071 whole entry, chain 2 of 2): as the sequence (O76071 whole entry, one chain of several) above
Target sequence in this assay (Q9Y3D0 whole entry, chain 3 of 2): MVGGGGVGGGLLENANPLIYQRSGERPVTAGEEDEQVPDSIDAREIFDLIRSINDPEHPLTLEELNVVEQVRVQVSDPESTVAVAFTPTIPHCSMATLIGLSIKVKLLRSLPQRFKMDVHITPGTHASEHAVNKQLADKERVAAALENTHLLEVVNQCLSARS

Binder: B1
Kd [1]: 35 nM
Kd [2]: 508 nM

Binder: B2
binding result [3]: binds

Binder: B3
binding result [4]: binds
binding result (full-length mouse DNA2): binds

Binder: B4
binding result [5]: binds
